Assay results as given in patent US6406886.

How the values were obtained:
Test in all cases: cell-based or functional assay
[1] = target: human Ha-Ras (1st to 189th residues) (human) (UniProt P01112)
Rac1 = target: Rac1
[2] = target: human Rap1A (Glu63) (1st to 184th residues) (human) (UniProt P62834)
Ran = target: Ran
[3] = target: human RhoA (1st to 193 residues) GST fusion protein (human) (UniProt P61586)
[4] = target: yeast Rsr1 (1st to 272nd residues) (yeast) (UniProt P13856)
yeast Rsr1 (1st to 272nd residues) (yeast), sequence (P13856 whole entry, form in doubt): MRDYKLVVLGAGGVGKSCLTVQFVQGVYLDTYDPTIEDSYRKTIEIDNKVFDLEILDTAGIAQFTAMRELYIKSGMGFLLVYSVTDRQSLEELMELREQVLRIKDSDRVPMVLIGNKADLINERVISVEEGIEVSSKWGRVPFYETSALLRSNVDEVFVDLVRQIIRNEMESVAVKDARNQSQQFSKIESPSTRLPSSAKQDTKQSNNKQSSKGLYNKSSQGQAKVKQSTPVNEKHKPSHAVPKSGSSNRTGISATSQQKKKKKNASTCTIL

human Rap1A (Glu63) (1st to 184th residues) (human), sequence (P62834 whole entry): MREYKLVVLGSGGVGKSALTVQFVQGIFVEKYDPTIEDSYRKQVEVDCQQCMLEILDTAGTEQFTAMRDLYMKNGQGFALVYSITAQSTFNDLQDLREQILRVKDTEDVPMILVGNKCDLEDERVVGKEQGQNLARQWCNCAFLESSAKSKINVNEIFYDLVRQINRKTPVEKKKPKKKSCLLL
human RhoA (1st to 193 residues) GST fusion protein (human), sequence (P61586 whole entry, form in doubt, the tested form may be a part): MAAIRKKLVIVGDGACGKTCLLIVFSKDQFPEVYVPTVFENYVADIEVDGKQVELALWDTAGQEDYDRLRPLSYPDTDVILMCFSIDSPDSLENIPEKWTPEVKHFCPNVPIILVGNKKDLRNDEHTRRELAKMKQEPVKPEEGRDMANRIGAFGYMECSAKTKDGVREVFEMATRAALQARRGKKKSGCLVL
human Ha-Ras (1st to 189th residues) (human), sequence (P01112 whole entry, form in doubt): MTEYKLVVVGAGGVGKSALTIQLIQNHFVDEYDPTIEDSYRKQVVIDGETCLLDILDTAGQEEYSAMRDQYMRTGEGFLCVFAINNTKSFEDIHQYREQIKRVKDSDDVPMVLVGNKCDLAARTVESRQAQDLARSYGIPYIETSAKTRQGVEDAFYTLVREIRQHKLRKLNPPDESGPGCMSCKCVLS

- Stimulation (times) of GTPase activity [1]: 0.3 times
- Stimulation (times) of GTPase activity (Rac1): 0 times
- Stimulation (times) of GTPase activity [2]: 6 times
- EC16 (µg/ml), activation of Ran GTPase (Ran): 25 µg/mL
- Stimulation (times) of GTPase activity [3]: 0.6 times
- Stimulation (times) of GTPase activity [4]: 16 times
B1: Span-N/GST fusion protein (protein, not shown: a dimerising Fc or GST)
chain: MYNNQEAGAAFMQFLTLLGDVVRLKGFESYRAQLDTKTDSTGTHSLYTTYQDHEIMFHVSTMLPYTPNNQQQLLRKRHIGNDIVTIVFQEPGSKPFCPTTIRSHFQHVFLVVRAHAPCTPHTSYRVAVSRTQDTPAFGPALPEGGGPFAANADFRAFLLAKALNGEQAAGHARQFHAMATRTRQQYLQDL
